Results reported in the nanobody polyreactivity screen of Harvey et al. (2022).

Test: yeast display, Sf9 membrane polyspecificity reagent, FACS + sequencing; frameworks hold sequencing errors
Summary of the method: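 After 36–48 hours of galactose induction, yeast (Saccharomyces cerevisiae BJ5465) displaying a synthetic nanobody library were stained at 4 °C for 1 hour with 10% biotinylated, detergent-solubilized Sf9 membrane reagent. Streptavidin microbeads enriched the stained cells before FACS sorting into low and high (top ~1%) gates on anti-HA and streptavidin fluorescence. Each clone's polyreactivity label reflects its gate of origin.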

| Sequence | polyreactivity (PSR sort gate) |
| --- | --- |
| QVQLLESGGGLVKAGGSLRVSCAASGLTFNYYAMGWYRHAPGKDRELCAAISRRGGYTYYADSVKGRFTISRDNAKNTVYVQKNSQKPEDTAVYDCAADNYEHNYYGYYYWGQGNQVTVSS | high polyreactivity |
| QVQLLESGGGLVQAGGSLLLSCAASGLTFHRYAMGWYRQAPGKERELFAAINYSGGRTYYADSVKGRFTISRDNAKNTVYLQMNSLKPEDSAVYYCAARYLGCDYSGSWWKYYYWGQGTQVTVSS | high polyreactivity |
| QVQLLESGGGLVQAGGSLRLSCAASGFIFKGNAMGWYRQAPGKERELVAAITNRGGGTYYADSVKGRFTISRDNAKNTVYLLMNSLKPEDTAVYYCAKAYTLPFHPYDYWGQGTQVTVSS | high polyreactivity |
| QVQLLESGGGLVQAGGSLRLSCAASGFTFWYYAMGWYRQAPGKEREFVASISWNGGRTYYADSVKGRFTISRDNAMNTVYLQMNSLKPEDTAVYYCATRVIYSFTDFKGDYWGQGTQVTVSS | high polyreactivity |
| QVQLLESGGGLVQAGGSLRLSCAASGGTFRPYAMGWYRQAPGKERELVAAISFTGSTYYADSVKGRFTISRDNAKNTVYLQMNSLKPEDTAVYYCAKDFWYPPRFDYWGQGTQVTVSS | low polyreactivity |
| QVQLLESGGGLVQAGGSLRLSCAASGIIFCEYAMGWYTQAPGKERELVATITSGDSTNYADSVKGRFTISRDNAKNTVYLQMNSLKPEDTAVYYCIADYAFLPSYDYWGQGTQVTVSS | low polyreactivity |
| QVQLLESGGGLVQAGGSLRLSCAASGIIVSYAMGWYRQAPGKERELVAAIRYSGDSTYYADSVKGRFTISRDNAKNTVYLQMNSLKPEDTAVYYCAATKGWSRYEYWGQGTQVTVSS | low polyreactivity |
| QVQLLESGGGLVQAGGSLRLSCAASGLIFAYAMGWYRQAPGKERELVAVISWSGGSTYYADSVKGRFTISRDNAKNTVYLQKNSLKPEDTAVYYCAADYFGNWQLAGGYLGQGTQVTVSS | low polyreactivity |
| QVQLLESGGGLVQAGGSLRLSCAASGLIFWGYAMGWYRQAPGKERELVAAINATGGRTYYADSVKGRFTISRDNAKNTVYLQMNSLKPEDTAVYYCAAYSGFYDSYDYWGQGTQVTVSS | low polyreactivity |
| QVQLLESGGGLVQAGGSLRLSCAASGLTFSSYTMGWYRQAPGKERELVAANTRRGTSTYYADSVKGRFTISRDNAKNTVYLQMNSLKPEDTAVYYCNALVYDEYGYYHYYLRNGGYYWGQGTQVTVSS | high polyreactivity |
| QVQLLESGGGLVQAGGSLRLSCAASGRIFGRYAMGWYRQAPGKERELVAAISSGGRTNYADSVKGRFTISRDNAKNTVYLQMNSLKPEDTAVYYCAARAYTYQAQSNYWGQGTQVTVSS | high polyreactivity |
| QVQLLESGGGLVQAGGSLRLSCAASGRIFKFKAMGWYRQAPGKERQLVAATWSGGRTSYADSVKGRITISRDNAKYTVYLQMNSLKPEDTAVYYCAARWFDGDWDYWYDYWGQGTQVTVSS | low polyreactivity |
| QVQLLESGGGLVQAGGSLRLSCAASGRTFAWNAMGWYRQAPGNERELVARLRSSGSTYYADSVKGRFTISRDNAKNTVYLQMNSLKPEDTAVYYGAKKWGWFPVYYWGQGTQVTVSS | high polyreactivity |
| QVQLLESGGGLVQAGGSLRLSCAASGRTFTRNAMGWNRQAPGKERELVATIRYSTGTTYYADSVKGRFTISRDNAKNTVYLQMNSLKPEDTAVYYCAARVYRYRGYDSWGKGTQVTVSS | high polyreactivity |
| QVQLLESGGGLVQAGGSLRLSCAASGRTFWYYVMGWYRQAPGKERELFAAITSSGGSTYYADSVKGRFTISRDNAKNSVYLQMNSLKAEDTSVYYCGAAAYTRGYYWGQGTEVTVSS | low polyreactivity |
| QVQLLESGGGLVQAGGSLRLSCAASGRTFYRTAKGWYRQAPGKERELVASITRSGNTNYADSVKGRFTISRDNAKNTVYLQMNSLKPEDTAVYYCAARPWLRNKYDYWGQGTQVTVSS | high polyreactivity |
